The values that follow come from patent US20220380463A1.

The chains are these.
B1: SAD10320_P02_E05 (antibody, V domains shown)
VH: QVQLVQSGAEVKKPGASVKVSCKASGFNIKDYYMHWVRQAPGQRLEWMGWIDLENANTIYDAKFQGRVTITRDTSASTAYMELSSLRSEDTAVYYCARDMHGRYFYDVWGQGTLVTVSS
VL: DIVMTQSPDSLAVSLGERATINCKSSQSLLNARTGKNYLAWYQQKPGQPPKLLIYWASTRESGVPDRFSGSGSGTDFTLTISSLQAEDVAVYYCKQSEHRRTFGGGTKVEIK
B2: SAD10320_P02_D06 (antibody, V domains shown)
VH: B1 VH with L45P, E46A, M100A, H101Y, R103H, Y104G
VL: B1 VL with E98Y, H99G, R100H
B3: SAD10320_P02_A06 (antibody, V domains shown)
VH: B1 VH with E46P, M100A, G102E
VL: B1 VL with E98H, H99L
B4: SAD10320_P04_F10 (antibody, V domains shown)
VH: B1 VH with R44T, E46D, M100A, H101Y, Y104N, F105H
VL: B1 VL with T34P, E98Y, H99L, R100H
B5: SAD10320_P03_H08 (antibody, V domains shown)
VH: B1 VH with M100A, H101Y, R103H, Y104V
VL: B1 VL with R33S, G35A, E98Y, H99R, R100H
B6: SAD10320_P03_D08 (antibody, V domains shown)
VH: B1 VH with M100A, H101Y, R103H, Y104Q
VL: B1 VL with E98Y, R100T
B7: SAD10320_P04_E11 (antibody, V domains shown)
VH: B1 VH with M100A, H101Y, R103H, Y104D
VL: B1 VL with E98Y, H99G, R100H
B8: SAD10320_P04_D12 (antibody, V domains shown)
VH: B1 VH with M100A, H101Y, R103H, Y104D
VL: B1 VL with E98Y, H99S, R100H
B9: SAD10320_P04_A11 (antibody, V domains shown)
VH: B1 VH with E46Q, M100A, H101R, G102H
VL: B1 VL with E98Y, H99S, R100H, R101G
B10: SAD10320_P04_C10 (antibody, V domains shown)
VH: B1 VH with M100A, H101Y, R103H, Y104A
VL: B1 VL with E98Y, R100Q
B11: SAD10320_P03_C09 (antibody, V domains shown)
VH: B1 VH with K23E, M100A, H101Y, R103H, Y104V
VL: B1 VL with E98Y, H99L, R100H
B12: SAD10320_P03_E07 (antibody, V domains shown)
VH: B1 VH with M100A, H101V, G102H
VL: B1 VL with E98Y, R100P
B13: SAD10320_P03_A09 (antibody, V domains shown)
VH: B1 VH with M100A, H101Y, R103H, Y104V
VL: B1 VL with E98S
B14: SAD10320_P03_F09 (antibody, V domains shown)
VH: B1 VH with M100A, H101Y, R103H, Y104D
VL: B1 VL with E98Y
B15: SAD10320_P02_H06 (antibody, V domains shown)
VH: B1 VH with M100A, H101Y, Y104N, F105H
VL: B1 VL with N37S, E98Y, H99V, R100H
B16: SAD10320_P04_D11 (antibody, V domains shown)
VH: B1 VH with E46Q, M100A, H101Y, R103H, Y104V
VL: B1 VL with E98Y, R100H
B17: SAD10320_P04_F11 (antibody, V domains shown)
VH: B1 VH with M100A, H101Y, R103H, Y104E
VL: B1 VL with S97G, E98H, H99S
B18: SAD10320_P03_F08 (antibody, V domains shown)
VH: B1 VH with M100A, H101Y, R103H, Y104D
VL: B1 VL with T34P, E98Y, H99S
B19: SAD10320_P04_G11 (antibody, V domains shown)
VH: B1 VH with M100A, H101Y, G102R, R103H, Y104E
VL: B1 VL with E98Y, H99Y, R100H
B20: SAD10320_P03_C08 (antibody, V domains shown)
VH: B1 VH with K23E, R44T, E46A, M100A, H101Y, R103H, Y104V
VL: B1 VL with E98Y, H99L, R100H
B21: SAD10320_P04_A12 (antibody, V domains shown)
VH: B1 VH with M100A, H101Y, R103H, Y104V
VL: B1 VL with E98Y, R100H
B22: SAD10320_P04_E12 (antibody, V domains shown)
VH: B1 VH with M100A, H101Y, R103H, Y104T
VL: B1 VL with E98Y, R100V

Substitutions are numbered along the chain they refer to.

One may read the Kd as the constant that tells how readily two partners part at equilibrium. A word on the kon: it is the second-order rate constant of association. A lower kon goes with slow association.

Sequence of cynomolgus CD3εδ Fc heterodimer (Cy CD3ε Fc / CD3δ Fc-HIS) (cynomolgus) (chain, as listed by the source mutant, chain 1 of 2): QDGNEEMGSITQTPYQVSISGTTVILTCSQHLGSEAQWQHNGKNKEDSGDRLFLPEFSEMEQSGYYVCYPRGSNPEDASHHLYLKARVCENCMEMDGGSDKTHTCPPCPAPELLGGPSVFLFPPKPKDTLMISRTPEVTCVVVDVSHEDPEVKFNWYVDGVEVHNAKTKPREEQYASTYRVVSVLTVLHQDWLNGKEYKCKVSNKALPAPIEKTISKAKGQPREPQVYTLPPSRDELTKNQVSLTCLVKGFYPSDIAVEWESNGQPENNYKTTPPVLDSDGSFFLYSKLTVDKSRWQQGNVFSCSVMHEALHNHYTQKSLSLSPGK
Sequence of cynomolgus CD3εδ Fc heterodimer (Cy CD3ε Fc / CD3δ Fc-HIS) (cynomolgus) (Q95LI8 22-100, stated change not applied, chain 2 of 2): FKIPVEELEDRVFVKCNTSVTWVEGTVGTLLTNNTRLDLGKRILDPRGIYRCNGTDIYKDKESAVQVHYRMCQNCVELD

This assay addresses cynomolgus CD3εδ Fc heterodimer (Cy CD3ε Fc / CD3δ Fc-HIS) (cynomolgus) (UniProt Q95LI8). The experiment in a line: BLI (ForteBio), pH 6.0.
Take B1: the Kd came to 14.5 nM and the on-rate (kon) was 219000 M⁻¹ s⁻¹.
On to B2, for which the Kd worked out at 23.4 nM and the kon was 265000 M⁻¹ s⁻¹.
The matching figures for B3: 11.6 nM and 228000 M⁻¹ s⁻¹.
In turn, B4 came in with a Kd of 8.51 nM and a kon of 281000 M⁻¹ s⁻¹.
The matching figures for B5: 181 nM and 82700 M⁻¹ s⁻¹.
The matching figures for B6: 7.76 nM and 249000 M⁻¹ s⁻¹.
The like results for B7 were, in that order, 20.1 nM and 148000 M⁻¹ s⁻¹.
In turn, B8 came in with a Kd of 13.9 nM and a kon of 186000 M⁻¹ s⁻¹.
The matching figures for B9: 29.4 nM and 252000 M⁻¹ s⁻¹.
The matching figures for B10: 168 nM and 111000 M⁻¹ s⁻¹.
The matching figures for B11: 31.6 nM and 161000 M⁻¹ s⁻¹.
Regarding B12, the Kd is 33.8 nM and the kon was found to be 207000 M⁻¹ s⁻¹.
Turning to B13, the Kd was determined as 14.6 nM and the kon is 199000 M⁻¹ s⁻¹.
The matching figures for B14: 37 nM and 195000 M⁻¹ s⁻¹.
In the case of B15, the Kd is 10.5 nM and the kon was 268000 M⁻¹ s⁻¹.
The matching figures for B16: 16.9 nM and 200000 M⁻¹ s⁻¹.
The like results for B17 were, in that order, 9.55 nM and 201000 M⁻¹ s⁻¹.
B18 came in with a Kd of 15 nM and a kon of 179000 M⁻¹ s⁻¹.
The like results for B19 were, in that order, 15.7 nM and 176000 M⁻¹ s⁻¹.
As for B20, the Kd amounted to 323 nM and the kon stood at 46900 M⁻¹ s⁻¹.
Take B21: the Kd was 240 nM and the kon is 69700 M⁻¹ s⁻¹.
The matching figures for B22: 79.8 nM and 136000 M⁻¹ s⁻¹.
